Reference: article PMC10819331

System: T1, MBP-Z3495 (LysR-type regulator) (Escherichia coli O157:H7 EDL933?), ORF:b652805f
T1 sequence: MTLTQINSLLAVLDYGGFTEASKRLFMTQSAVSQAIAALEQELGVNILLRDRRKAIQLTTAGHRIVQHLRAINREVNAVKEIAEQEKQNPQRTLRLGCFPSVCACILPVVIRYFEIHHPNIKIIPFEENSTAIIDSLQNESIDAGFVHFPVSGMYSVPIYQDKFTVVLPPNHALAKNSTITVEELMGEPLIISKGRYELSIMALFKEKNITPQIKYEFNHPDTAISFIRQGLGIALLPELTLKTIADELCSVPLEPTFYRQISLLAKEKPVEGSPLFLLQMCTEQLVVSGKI
Assay: EMSA

With “TAAAAACTCTTCAACGTTTCTTTTAACTAAAAGATTCATCTGCAGGCTCTGAAGTAAGTATACGTGTGAATATTATTGCTTGAAAAAGCGTATTGGATAATATATACAGTATATGTACTTTATGTACATTGCAACTATTTAAATAATATAATAGTTGCCTATGGGATAATTTGGTTATTTATAACCAGGTAAATGTCTAAATTAGACAAAAGGAGAAAGATCAATGGAAGCAGCAAATTTAAGTCCTTCTGGTGCAGTAATGCCGCTGGCGACCTCACTCA (double strand) [LEE2/3 promoter]” the binding was “no binding”.
For “GTTATCGCAGGGAGCCACACAGCGTGTGTTGGACGCGACTCAGCTTTACCTTGGTGAGATTGGTTATTCACCACTGTTAACGGCCGAAGAAGAAGTTTATTTTGCGCGTCGCGCACTGCGTGGAGATGTCGCCTCTCGCCGCCGGATGATCGAGAGTAACTTGCGTCTGGTGGTAAAA (double strand) [rpoS fragment]”, the binding was “no binding”.
“AATTCCCGATTACGCATCGCACCATTGAGAAGTTTTATTTTATATGAGGATAACATTTTTAAATTTTATTCATCCTGGTGGTTGAACAATGAGAAAAAATATGGTGAACTTACATCGTCTAAGAATAGAGTAGAAAGGAAGCTGTTGTACAGTACTATTTAATGGAATATTCATAATTAAT (double strand) [LEE4 promoter]” was tested, and the binding was “no binding”.
